Consider four molecules from patent publication US20060030524A1, “Treatment of systemic lupus erythematosus by down-regulating the autoimmune response to autoantigens” (Yeda Research and Development Co. Ltd., priority 1998, published 2006).

One experiment has as its system MRL/MpJ-Fas^lpr mice. The experiment in a line: Prevention of spontaneous SLE in MRL/MpJ-Fas^lpr mice. It is filed as in vivo. The note with it: for heavy proteinuria, ^33 g/l (+++) at week 17 of age, mice affected/treated: peptides 100 μg i.p. in PBS at weeks 12, 18, 24, TCV 2×10^7 cells i.p. at 12 weeks; for death by week 33 of age, percent of mice / heavy proteinuria, ^33 g/l (+++) at week 17 of age, percent of mice: same treatments. The text has this:
Proteinuria was detected with Albustix strips (Bayer, Slough, UK). Leukocytes were counted from heparinized blood following 10-fold dilution in 1% acetic acid.
Thus, modulation of the p53 immune network should affect the course of SLE. A preliminary experiment was designed to see whether the spontaneous SLE development in MRL/MpJ-Fas^lpr mice might be influenced by administering to these mice peptides involved in the p53 network: the CDR peptides of the light and the heavy chain of PAb-421 depicted in FIG. 10 (administered as a mixture), or peptide 364-383 (residues 364-383 of SEQ ID NO:1) of the carboxy terminal domain of p53. The mice were intraperitoneally injected with 100 μg of the p53 peptide epitope of PAb-421 in PBS, or with 100 μg of peptides derived from variable region of PAb-421 in PBS at weeks 12,18, and 24 of age and followed for the development of SLE symptoms. […] Treatment with the peptides derived from the variable region of PAb-421 protected all five mice from development of proteinuria (0%; Table 2: 421: CDR). At week 33 of age, 5 of 6 non-treated mice (83%, cf. Table 2) were dead, whereas none of the mice treated with either peptide had died (0% each; see Table 2).
Also carried out was T cell vaccination against immunity to PAb-421. MRL/MpJ mice were immunized intradermally with 30 μg PAb-421 in complete Freund's adjuvant, followed by a boost in incomplete Freund's adjuvant. Cells derived from the draining lymph nodes, which were enriched for T cells reactive to PAb-421 and the p53 epitope peptide of PAb-421, were activated with 2 μg per ml Concanavalin A. Twelve week old MRL/MpJ-Fas^lpr mice were then injected intraperitoneally with 2×10^7 freshly activated and gamma-irradiated (2500 rad) cells per mouse. At 17 weeks of age, only 1 out of 8 treated mice […] developed severe proteinuria, while, in contrast, 6 out of 8 untreated control mice (75%) developed severe proteinuria. 421-TCV vs. not treated.

Experiment [1] relates to mouse antibodies other than PAb-421, like R73. The experiment in a line: Reactivity of IDI-1 and IDI-2 to control mouse antibodies. In kind it is binding. The note with it: control mAb. As to the method: (§1) FIG. 7 is a graph showing the reactivities of monoclonal antibodies IDI-1 and IDI-2, which were selected for idiotypic binding to PAb-421. […] The binding to single-stranded or double-stranded calf thymus DNA was assessed by ELISA after the DNA had been gamma-irradiated with the indicated dosages (0-10,000 rad).
(§2) Two monoclonal antibodies, IDI-1 and IDI-2, could be isolated which had been selected for idiotypic binding to PAb-421 and their reactivities were determined. […] Thus, these two novel monoclonal antibodies of the present invention appear to mimic the DNA-binding specificity of p53. Thus, such antibodies could serve as models of the critical regulatory conformation of the carboxy-terminal domain of p53.

Experiment [2] relates to single-stranded or double-stranded calf thymus DNA. Briefly: ELISA binding of IDI-1 and IDI-2 to calf thymus DNA, with or without gamma-irradiation. The note with it: for change of binding to single-stranded DNA after gamma-irradiation of the DNA: 0-10,000 rad, depending on the radiation dose; for reactivity to DNA (FIG. 7): single-stranded or double-stranded DNA. As for the experimental part:
as §1
For anti-DNA ELISA, a secondary antibody conjugated to horseradish peroxidase, and as substrate 1 mg/ml ABTS in 0.2 M citric acid, 0.2 M Na2HP04, and 3% H202 (all from Sigma) was used. The test antigens used were (Fab) 2 fragments of Ab2 anti-PAb-421, which were prepared as described (Harlow et al, 1988), recombinant p53, the p53 peptide epitope of PAb-421, histones or, after pre-coating with methylated BSA, calf thymus DNA (all from Sigma). All antibody titers are shown as the O. D. produced by the test sera at a dilution of 1:100. Dots represent individual sera, bars represent the median of each group.
as §2

Experiment [3] has as its system single-stranded homooligomers (20-mers) of dG, dA, dC and dT. Briefly: Band-shift assay with single-stranded homooligomers. In kind it is binding. The note with it: preliminary studies. The text has this: Preliminary studies were done to define the oligonucleotide motifs recognized by IDI-1 and IDI-2 and to test whether p53 itself might bind the same oligonucleotide. Single-stranded homooligomers (20-mers) of dG, dA, dC and dT were used. […] Thus, dG is an important ligand for the anti-DNA monoclonal antibodies and for p53 itself. This further supports the presumptions that IDI-1 and IDI-2 mimic the carboxy terminal conformation of p53. In fact, the binding of the antibody to oligo dG is evidence that the antibody actually mimics the C-terminal domain of p53.

The test system of the next experiment is PAb-421. The experiment in a line: Reactivity of monoclonal antibodies IDI-1 and IDI-2 to PAb-421. In kind it is binding, mouse. As to the method:
as §1
To generate such antibodies, BALB/c mice were immunized with PAb-421 and selected hybridomas producing anti-idiotypic antibodies that bound PAb-421 and could also bind DNA were isolated.
as §2

“421-Epitope: p53 peptide SYLKTKKGQSTSRHKKTMVK, residues 364-383 of SEQ ID NO:1, carboxy terminal domain of p53 (listed as Mus sp.)”: the “death by week 33 of age, mice dead/treated” value in the experiment with MRL/MpJ-Fas^lpr mice (peptides 100 μg i.p. in PBS at weeks 12, 18, 24) is on record as 0/6. For the same molecule, in the experiment with MRL/MpJ-Fas^lpr mice, the “heavy proteinuria, ^33 g/l (+++) at week 17 of age, mice affected/treated” value is reported as 2/5; the “death by week 33 of age, percent of mice” value was “(0%)”; the “heavy proteinuria, ^33 g/l (+++) at week 17 of age, percent of mice” value is listed as “(33%)”. In the experiment with MRL/MpJ-Fas^lpr mice (listed as 421-epitope), the “heavy proteinuria, ^33 g/l (+++) at week 17 of age, mice affected/treated” value is listed as 2 out of 5; the “death by week 33 of age, percent of mice” value came to 0%; the “heavy proteinuria, ^33 g/l (+++) at week 17 of age, percent of mice” value was 40%.

B1: IDI-1: Ab2 monoclonal antibody anti-idiotypic to PAb-421 that binds DNA; VH and VL SEQ ID NOs:4 and 5 (antibody, listed as Mus sp., V domains shown)
VH: IPQVQLQQSGAELVRPGASVKLSCKASGYIFTSYWINWVRQRPGQGLEWIGNISPADSSTNYNQKFKDKATLTVDKSSTTAYMQLSRPTFEDSAVYYCAREEVRRRRDMDFWGQGTSVTVSSAKTTPPC
VL: RKLDIVITQDELSNPVTSGESVSISCRSRQSLLYKNGKTYLNWFLQRPGQSPQLLIYLMSIRASGVSDRFSGNGSGTDFTLEISRVRAEDVGVYYCQQLVEYPYTFGGGTKLEIKRADAAPT
modifications: BINDING (28)..(37) Complementary Determining Region; BINDING (27)..(42) Complementary Determining Region
B1: the “reactivity to mouse antibodies other than PAb-421” value in experiment [1] is given as “No reactivity”. Moreover, in experiment [2], the “change of binding to single-stranded DNA after gamma-irradiation of the DNA” value is recorded as “markedly enhanced” and the “reactivity to DNA (FIG. 7)” value is “specific reactivity”. Further, the “binding to homooligomers in band-shift assay” value (“binding … in band-shift assay” below) in experiment [3] is reported as “bound to the dG oligomer better than they did the others”. Besides, the “reactivity to PAb-421 (FIG. 7)” value in the experiment with PAb-421 is “specific reactivity”.

B2: p53: recombinant mouse p53 protein expressed in E. coli (protein, UniProt P02340 1-390, looked up)
Cellular tumor antigen p53: MTAMEESQSDISLELPLSQETFSGLWKLLPPEDILPSPHCMDDLLLPQDVEEFFEGPSEALRVSGAPAAQDPVTETPGPVAPAPATPWPLSSFVPSQKTYQGNYGFHLGFLQSGTAKSVMCTYSPPLNKLFCQLAKTCPVQLWVSATPPAGSRVRAMAIYKKSQHMTEVVRRCPHHERCSDGDGLAPPQHLIRVEGNLYPEYLEDRQTFRHSVVVPYEPPEAGSEYTTIHYKYMCNSSCMGGMNRRPILTIITLEDSSGNLLGRDSFEVRVCACPGRDRRTEEENFRKKEVLCPELPPGSAKRALPTCTSASPPQKKKPLDGEYFTLKIRGRKRFEMFRELNEALELKDAHATEESGDSRAHSSYLKTKKGQSTSRHKKTMVKKVGPDSD
In the case of B2, the “binding … in band-shift assay” value in experiment [3] is “bound to the dG oligomer better than they did the others”.

B3: IDI-2: Ab2 monoclonal antibody anti-idiotypic to PAb-421 that binds DNA; VH and VL SEQ ID NOs:6 and 7 (antibody, listed as Mus sp., V domains shown)
VH: QVQLQQSGPELVKPGASMKISCKASGYSFTGYTINWVKQSHGKNLEWIGLINPYNGGTCYNPKFKGKATLTVDKSSSTAYMELLSLTSEDSAVYYCARRVWLRRDGFYYAMDYWGQGTSVTVSSAKTTPP
VL: AVSLGQRATISCQASESVSFAGTSLMHWYQQKPGQPPKLLIYRASKLESGVPARFSGSGSESDFTLTIDPVEEDDAAMYYCMQSMEDPYTFGGGTKLEIKRADAAPTVSIFPPS
modifications: BINDING (26)..(35) Complementary Determining Region; BINDING (13)..(27) Complementary Determining Region
On to B3, for which the “reactivity to mouse antibodies other than PAb-421” value in experiment [1] is “No reactivity”. In experiment [2], the “change of binding to single-stranded DNA after gamma-irradiation of the DNA” value is given as “somewhat less” and the “reactivity to DNA (FIG. 7)” value is recorded as “specific reactivity”. For the same molecule, in experiment [3], the “binding … in band-shift assay” value is given as “bound to the dG oligomer better than they did the others”. For the same molecule, the “reactivity to PAb-421 (FIG. 7)” value in the experiment with PAb-421 is reported as “specific reactivity”.
